The values below come from the RNAGym collection of RNA variant scans (doi:10.1073/pnas.2313332121).

This sample holds only a part of the variants without activity.

Sequences and labels used below:
B1: TPR 5TU (parent)
chain: GGAUCUUCUCGAUCUAACAAAAAAGACAAAUCUGCCACAAAGCUUGAGAGCAUCUUCGGAUGCAGAGGCGGCAGCCUUCGGUGGCGCGAUAGCGCCAACGUUCUCAACUAUGACACGCAAAACGCGUGCUCCGUUGAAUGGAGUUUAUCAUG

The variants in this data set derive from B1. Put plainly: polymerase ribozyme fitness, log enrichment relative to wild type (log ratio); higher = more active; in vitro selection for triplet polymerase activity. Put shortly: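 PCR was used to build mutant libraries for each subunit of a heterodimeric triplet polymerase ribozyme, which were then transcribed. A single in vitro selection round, in triplicate, used a frozen incubation at −7 °C and recovered extended constructs by gel excision, streptavidin beads and RT-PCR. Fitness is the logarithm of genotype enrichment relative to wild-type enrichment, averaged over replicates with inverse-variance weights. The logarithm is base 2, and after Illumina sequencing only genotypes with ≥10 input reads and ≥1 read per output were kept.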
In the case of A21U G46U U55A C85G A106G C116A, the “polymerase ribozyme fitness (log ratio)” value is -1.91. Consider A21U C95A U146G, for which the “polymerase ribozyme fitness (log ratio)” value was -0.389.

For A21U A24C C27G A28U G88U U102C A107C C114U, the “polymerase ribozyme fitness (log ratio)” value was at most -4.2. Take A21U G71C C79G A107U A142C: the “polymerase ribozyme fitness (log ratio)” value was at most -4.2.

With A21U C72U A122U, the “polymerase ribozyme fitness (log ratio)” value was -0.472. Take A21G A24C U31C C69G U148C: the “polymerase ribozyme fitness (log ratio)” value was at most -4.2. Turning to A21U A26C G141A, the “polymerase ribozyme fitness (log ratio)” value was -3.34. Regarding A22C C38U G58U A60C C85A C87U G133A G140U, the “polymerase ribozyme fitness (log ratio)” value was at most -4.2. In the case of A21G A47C C51U C87U U90G, the “polymerase ribozyme fitness (log ratio)” value was at most -4.2. On to A21G C99U, for which the “polymerase ribozyme fitness (log ratio)” value is 0.465. In the case of A22C A47U C54U G86U C103A, the “polymerase ribozyme fitness (log ratio)” value is at most -4.2. Take A21G A106C: the “polymerase ribozyme fitness (log ratio)” value is -0.348. For A21U A26U C57U G84U, the “polymerase ribozyme fitness (log ratio)” value is -3.6. In the case of A21U U78G, the “polymerase ribozyme fitness (log ratio)” value is at most -4.2.

Regarding A21G G68A, the “polymerase ribozyme fitness (log ratio)” value was -3.89. On to A21G U31G C38U A66G C93A G124U U144A, for which the “polymerase ribozyme fitness (log ratio)” value is at most -4.2.

Regarding A21C G141C, the “polymerase ribozyme fitness (log ratio)” value was 1.03. With A21G U44A G68U G83U A106G A115U C118A A119C C123U U144G, the “polymerase ribozyme fitness (log ratio)” value was at most -4.2.

Consider A22C A49C G84C G94U, for which the “polymerase ribozyme fitness (log ratio)” value is at most -4.2. With A21U A26G G71A C125U the figure was at most -4.2; with A21U C54A C96U, -2.01; with A21G U139A, -3.9. A21C G83C C87A G92U C116G: the “polymerase ribozyme fitness (log ratio)” value was -1.27.

Turning to A21G G25A U56A C93U A119G A120C U146C, the “polymerase ribozyme fitness (log ratio)” value is -3.11. With A21G G68C C85A G92A G128U, the “polymerase ribozyme fitness (log ratio)” value was at most -4.2. For the variant A21U A24C C79U G80C C85U C93U, the “polymerase ribozyme fitness (log ratio)” value was at most -4.2. In the case of A21G G81A C95U A107G A119C G141U, the “polymerase ribozyme fitness (log ratio)” value was at most -4.2. Consider A21U G71C C93A, for which the “polymerase ribozyme fitness (log ratio)” value is at most -4.2.

Regarding A21U C96U A97U U127C U139G, the “polymerase ribozyme fitness (log ratio)” value was -2.62. As for A22C A23G A49C A66G A113U, the “polymerase ribozyme fitness (log ratio)” value is at most -4.2. As for A21G U33G A37U C85U C95U G141C, the “polymerase ribozyme fitness (log ratio)” value was at most -4.2. For the variant A21U G48A U55A C75U G83C A89G A98U C105U G117A U144C, the “polymerase ribozyme fitness (log ratio)” value is at most -4.2. To A21G C27G U33C G58C C96U A97U A106G G141U belongs at most -4.2.

Turning to A21G G81U G86U C123A, the “polymerase ribozyme fitness (log ratio)” value was -1.08. Consider A22C C75G G88U A91G A110G C116A G136A, for which the “polymerase ribozyme fitness (log ratio)” value was at most -4.2. With A21G A41G C93A C132A the figure was -3.75.

A22C U44A C87U C103U: the “polymerase ribozyme fitness (log ratio)” value was at most -4.2. Regarding A22C A66C C103G G126C, the “polymerase ribozyme fitness (log ratio)” value is at most -4.2.

As for A22C G58C G70U U134C, the “polymerase ribozyme fitness (log ratio)” value is -3.68.

In the case of A22C A47C C51G A64G C72A C95U A107G A113U U135A, the “polymerase ribozyme fitness (log ratio)” value was at most -4.2. On to A21G C36A C57U A64G G94U G126C A138G, for which the “polymerase ribozyme fitness (log ratio)” value is at most -4.2.

A22C C114A: the “polymerase ribozyme fitness (log ratio)” value was -3.5.

As to A21U C57A C76U C116A, the “polymerase ribozyme fitness (log ratio)” value was determined as 0.702. With A21U G128A, the “polymerase ribozyme fitness (log ratio)” value is -3.26. To A21G C114U belongs -1.69; to A21U C38A G81A, 0.0427; to A21G A41U C85A C116U, -1.58. To A22C A23C C36G C79A C125A G140U belongs -3.55; to A21U C32G C85A, at most -4.2; to A21G G94A, -1.01. To A21U C96A belongs -0.443; to A21U C96G, -0.697. In the case of A21U G50A C63G A89G C95U C116U, the “polymerase ribozyme fitness (log ratio)” value was -1.96. A21G A49C G81A G141A: the “polymerase ribozyme fitness (log ratio)” value was at most -4.2. To A21C U56G A89C C96A C116G A119C belongs -2.02. To A21U C36A A64C G86C belongs at most -4.2; to A21U A40U C85U G141A, 0.05; to A21G A28G U61C, at most -4.2. For A22C A52C G81U, the “polymerase ribozyme fitness (log ratio)” value was -1.38.

With A22C C38A U44G C75A G84A G117A U135A U151G, the “polymerase ribozyme fitness (log ratio)” value is at most -4.2. For the variant A21U C57U C93G, the “polymerase ribozyme fitness (log ratio)” value is -3.29. With A21U A30G C57U A91U U104A G126A the figure was at most -4.2; with A21C U53A C85A, -2.67; with A21U C38A, 0.268. For the variant A22C A26U U33G G34A U55A A73U U77G G86A G143A, the “polymerase ribozyme fitness (log ratio)” value is at most -4.2. For A22C G50U G67U G74U G92C C149G, the “polymerase ribozyme fitness (log ratio)” value is at most -4.2. To A21G A40C G86U A119G A150C belongs at most -4.2; to A21U A41U U55G G83A U145A, -2.5. On to A21C G58C U61G U146G, for which the “polymerase ribozyme fitness (log ratio)” value was -3.25.

Regarding A21C U45G C54G G143C, the “polymerase ribozyme fitness (log ratio)” value is at most -4.2. Regarding A21U C32G G50A G83A G136A, the “polymerase ribozyme fitness (log ratio)” value is at most -4.2.

With A21G A138C, the “polymerase ribozyme fitness (log ratio)” value is -4. Regarding A22C C27U G50C G80U U144G, the “polymerase ribozyme fitness (log ratio)” value was at most -4.2.

Regarding A21U U45G U55A A91U C125U C131G, the “polymerase ribozyme fitness (log ratio)” value is at most -4.2. As for A21U U33G A122U U144G, the “polymerase ribozyme fitness (log ratio)” value was -3.94. To A21U C79G belongs -3.91; to A21U C57A A107C A122G C123U U135C U145A, at most -4.2; to A22C A115C C129G, at most -4.2.

For the variant A21G A30G A89C, the “polymerase ribozyme fitness (log ratio)” value was at most -4.2. In the case of A21C G84A C118A, the “polymerase ribozyme fitness (log ratio)” value was -0.563. Turning to A21U U53A C57U G83A C95U, the “polymerase ribozyme fitness (log ratio)” value was -4.06. On to A21C G59C C85U G100C U130A G136A U144G, for which the “polymerase ribozyme fitness (log ratio)” value is at most -4.2. Take A21U A29U U33G C35U G81U G84A: the “polymerase ribozyme fitness (log ratio)” value was -4.1.
